Results from article PMC3387016, “Proteomic Identification of Calumenin as a G551D - CFTR Associated Protein” (PLoS ONE, 2012).

Biological target: T1, purified full length CFTR (UniProt P13569 1-1480)
T1 construct: cystic fibrosis transmembrane conductance regulator, full length, called Wt-CFTR in the SPR methods; also called pure CFTR; Wt-CFTR; source: purified, gift from Pr Robert Ford (University of Manchester, UK)
Experiment: SPR; Biacore 3000, calumenin amine-coupled to a CM5 chip (about 2000 RU), CFTR injected at 0.15 to 1.5 nM, 5 µl/min, HBS-EP pH 7.4, 25°C, triplicate
Settings: both partners purified

T1 sequence (P13569 whole entry): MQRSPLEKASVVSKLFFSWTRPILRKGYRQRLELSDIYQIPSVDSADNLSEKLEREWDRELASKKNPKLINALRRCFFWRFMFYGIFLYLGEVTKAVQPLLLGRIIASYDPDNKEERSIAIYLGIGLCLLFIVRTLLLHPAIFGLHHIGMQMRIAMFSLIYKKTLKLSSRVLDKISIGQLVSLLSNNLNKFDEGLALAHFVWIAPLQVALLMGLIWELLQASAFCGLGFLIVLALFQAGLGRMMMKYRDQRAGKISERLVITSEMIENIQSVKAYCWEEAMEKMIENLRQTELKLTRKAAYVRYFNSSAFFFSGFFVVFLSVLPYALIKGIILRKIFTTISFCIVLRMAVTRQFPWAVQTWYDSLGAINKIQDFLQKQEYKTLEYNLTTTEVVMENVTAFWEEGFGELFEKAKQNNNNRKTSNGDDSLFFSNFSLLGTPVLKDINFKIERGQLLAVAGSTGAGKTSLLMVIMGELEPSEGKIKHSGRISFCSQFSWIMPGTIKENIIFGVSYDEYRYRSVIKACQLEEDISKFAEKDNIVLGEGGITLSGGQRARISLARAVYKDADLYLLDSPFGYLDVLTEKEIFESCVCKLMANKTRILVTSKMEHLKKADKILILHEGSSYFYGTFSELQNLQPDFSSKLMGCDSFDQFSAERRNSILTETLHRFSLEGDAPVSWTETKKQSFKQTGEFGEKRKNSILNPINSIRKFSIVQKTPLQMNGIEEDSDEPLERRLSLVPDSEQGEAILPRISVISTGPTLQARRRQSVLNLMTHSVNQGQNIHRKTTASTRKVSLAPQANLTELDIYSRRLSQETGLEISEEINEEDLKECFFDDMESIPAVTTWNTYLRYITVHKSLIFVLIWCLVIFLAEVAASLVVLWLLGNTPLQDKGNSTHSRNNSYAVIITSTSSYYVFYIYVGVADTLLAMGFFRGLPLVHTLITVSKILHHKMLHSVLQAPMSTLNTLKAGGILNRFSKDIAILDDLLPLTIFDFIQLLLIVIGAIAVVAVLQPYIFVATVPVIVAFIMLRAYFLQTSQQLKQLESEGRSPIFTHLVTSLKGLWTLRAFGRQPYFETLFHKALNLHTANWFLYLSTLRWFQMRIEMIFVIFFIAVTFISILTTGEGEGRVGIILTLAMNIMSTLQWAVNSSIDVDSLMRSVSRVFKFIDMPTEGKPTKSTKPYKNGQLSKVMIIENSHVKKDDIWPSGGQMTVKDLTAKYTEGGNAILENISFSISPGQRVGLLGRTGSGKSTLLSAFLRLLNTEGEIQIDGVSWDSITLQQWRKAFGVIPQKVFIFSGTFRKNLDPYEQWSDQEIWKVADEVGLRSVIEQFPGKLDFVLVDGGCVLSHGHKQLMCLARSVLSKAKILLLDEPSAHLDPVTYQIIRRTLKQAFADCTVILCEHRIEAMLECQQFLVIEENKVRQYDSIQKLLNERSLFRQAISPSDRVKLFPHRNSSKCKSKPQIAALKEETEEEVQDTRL

B1: Pure recombinant human calumenin (natural protein, UniProt O43852 20-315, looked up)
chain: KPTEKKDRVHHEPQLSDKVHNDAQSFDYDHDAFLGAEEAKTFDQLTPEESKERLGKIVSKIDGDKDGFVTVDELKDWIKFAQKRWIYEDVERQWKGHDLNEDGLVSWEEYKNATYGYVLDDPDPDDGFNYKQMMVRDERRFKMADKDGDLIATKEEFTAFLHPEEYDYMKDIVVQETMEDIDKNADGFIDLEEYIGDMYSHDGNTDEPEWVKTEREQFVEFRDKNRDGKMDKEETKDWILPSDYDHAEAEARHLVYESDQNKDGKLTKEEIVDKYDLFVGSQATDFGEALVRHDEF
notes: calumenin, human, recombinant; No catalogue number, host, limits or tag are printed; also called pure calumenin; source: bought: Prospec (Israel)
B1 was tested. Which Kd did it give?
Its Kd is 3.8 pM.
